According to the DeepSol protein solubility set:

Experiment: soluble on expression in E. coli; label from the status in PepcDB or PDB records

Sequence	soluble on expression in E. coli
MGSDKIHHHHHHSFSLPGYLFGRCPDYSITYDKNDAQEQKDVYICDGNKSVVRIDSYKWNSSSSDWVYDGKTVMENDNQGRTLVAISYSAADVAGEKTEYTYTGNGYEKFSVTSSSFEGGAWKAEAKVDIEATFNKDKYPVSILMTGTAEGETFKMKMEWSYDKNVTKTSSSIDFGGSWMLMSESKTEIVDAGNPMISKNYQKMYFPAETSWEYSGKTHDYFNGTTSIAPVVEENELKLHIYGDVLEVQGTESGISIYAITGGKMAESKSNRIDISRLPAGIYLLNTARGSIKFIHK	not soluble
MGSDKIHHHHHHMRTYRSFKMFTNSSQGVRKVRVGIAGLGTVGGSIYRILKERGNEIEKRIGEKFIISKVINRSPQKYELLGVPKEEIAFDFDDLILNSDVVVEAIGGTDVAVDLVRRALELGRIVVTPNKNLISEYGNEFSEYIKKRKLFFEASVGGGIPIISLLQDYLIFQKVTRIRGIMNGTTNYILTEMSKGRHFEEVLKEAQELGYAEADPTNDIEGYDVAYKVSVLAGVVTGRFPGINSVQFEGITRIDPEYLKEIVRSGKKLKLIGELDFSTNRYEVRLREVTPEDPFFNVDGVDNAIEVSTDLAGDFLLKGRGAGGYPTASAVIADLFRVAKYKVLGGAEKFSVVVMKFGGAAISDVEKLEKVAEKIIKRKKSGVKPVVVLSAMGDTTDHLIELAKTIDENPDPRELDLLLSTGEIQSVALMSIALRKRGYKAISFTGNQLKIITDKRYGSARIIDINTDIISRYLKQDFIPVVAGFQGITETGDITTLGRGGSDLTAIALAYSLGADLCELYKDVDGVYTADPRIVKDARVIKELSWEEMIELSRHGAQVLQARAAEFARKYGVKVLIKNAHKETRGTLIWEGTKVENPIVRAVTFEDGMAKVVLKDVPDKPGVAARIMRTLSQMGVNIDMIIQGMKSGEYNTVAFIVPESQLGKLDIDLLKTRSEAKEIIIEKGLAKVSIVGVNLTSTPEISATLFETLANEGINIDMISASSSRISVIIDGKYVEDAVKAIHSRFELDRE	not soluble
MNSNMVFARVNEADVTEAILDGFYSSLKKHLRSDVIVVGAGPAGLTAAWRLAEAGARVLIVEQNNYLGGGLWLGGYFMNPVTIRAPAQRILDELEVPYEAVKPGLYRTKGPLLAAKLAARALEAGAEVLNLTMLDDVIVENSRVAGVVVNWSPVQGLPRQITCVDPVGLRAEYVVDATGHDAVVTRKLAERGMVEASKLGPMWVERSEDLVVEKTGEVYPGLVVAGIAVAEVYGLPRMGPTFGAMLLSGEKAAALIGEKLGLKVKVAAAPASQA	soluble
MNVYHYETSGGKDLILEYIDGLPKNEKAEGLTILEKLEKEGLEALEVLNTRQLRGKLWEIKFYRSNRIMYVVADEDNIYLVHACKKQKGKAEKFELDTAIKRVKELEKELGKKFI	not soluble
MTEAMKITLSTQPADARWGEKATYSINNDGITLHLNGADDLGLIQRAARKIDGLGIKHVQLSGEGWDADRCWAFWQGYKAPKGTRKVVWPDLDDAQRQELDNRLMIIDWVRDTINAPAEELGPSQLAQRAVDLISNVAGDRVTYRITKGEDLREQGYMGLHTVGRGSERSPVLLALDYNPTGDKEAPVYACLVGKGITFDSGGYSIKQTAFMDSMKSDMGGAATVTGALAFAITRGLNKRVKLFLCCADNLISGNAFKLGDIITYRNGKKVEVMNTDAEGRLVLADGLIDASAQKPEMIIDAATLTGAAKTALGNDYHALFSFDDALAGRLLASAAQENEPFWRLPLAEFHRSQLPSNFAELNNTGSAAYPAGASTAAGFLSHFVENYQQGWLHIDCSATYRKAPVEQWSAGATGLGVRTIANLLTA	soluble
MTIATSVAGSSENFAELFNESLSHKEMRVGEVITAEIIRVDYNFVVVNAGLKSESYIPIEEFKNDRGEIEAREGDFVSVAIEALENGFGETRLSRDKAKRLNAWYELEEAMEKGKIVTGMVNGKVKGGLTATINGIRAFLPGSLVDIRPVKDMTPYENKEMEFKVIKLDRKRNNVVVSRRAVLEETQGADRDELLASLQDGAVVQGIVKNITDYGAFVDLGGIDGLLHITDLAWRRVKHPTEVINVGDEVTAKVLKFDQEKNRVSLGLKQLTEDPWIGLSRRYPQGTRIFGKVTNMTDYGAFVEIEQGIEGLVHVSEMDWTNKNVYPSKIVQLGDEVEVMILEIDEDRRRISLGMKQCRPNPWEEFSLSHEKGDKVTGQIKSITDFGLFIGLPGNIDGLVHLSDLSWNQPGEKAISEFKKGDEVEAVVLSIDVEKERISLGIKQLEGDPFNIYVASHDKNSIVKGTVKSVDAKGAVIALTDEVEGYLRASEFSRDKIEDIRSRVNEGDEIEAMIINIDRKNRSISLSVKARIQDEEDKAVKSLASVSNPASAGTTNLGALLKAKIDSKSSEELEHHHHHH	soluble
MGSDKIHHHHHHMGIGIIIASHGKFAEGIHQSGSMIFGEQEKVQVVTFMPNEGPDDLYGHFNNAIAQFDADDEVLVLADLWSGSPFNQASRVMGENPERKMAIITGLNLPMLIQAYTERMMDANAGVEQVAANIIKESKEGIKALPEELNPVVEATPVAGVPADVPAEVKQSGSIPEGTVIGDGKLKINLARIDTRLLHGQVATAWTPASKANRIIVASDEVSKDELRKQLIKQAAPGGVKANVVPISKLIEVAKDPRFGNTRALILFETVQDALRAIEGGVEIPELNVGSMAHSTGKTMVNNVLSMDKDDVAAFEKLRDLGVSFDVRKVPNDAKKNLFDLINKANVK	not soluble
MGSDKIHHHHHHMEFVFGKKVFQSEVRKASDLKPVLAFPEALKEDFDAYYMFRDSFKTDEEAEIIRNAGLRYDYTVIPPNNIGGESIKTYGHYHPEVVRGFTYPEVYQVLEGEALFILQKPSNGKIEDVIVVEGKKWDTVIIPPNYGHVTINPTESDLITANWVCRNFSSIYEPYTKRRGACYYYINGEWVRNRNYDDAPEIRFAKPKNVLDVKGDMYDLVYTIEKLEFLVKPHEHQEIFENAFEVV	not soluble
AGTGVVSVQFNNGSSPASSNSIYARFKVTNTSGSPINLADLKLRYYYTQDADKPLTFWCDHAGYMSGSNYIDATSKVTGSFKAVSPAVTNADHYLEVALNSDAGSLPAGGSIEIQTRFARNDWSNFDQSNDWSYTAAGSYMDWQKISAFVGGTLAYGSTP	soluble
MAHHHHHHMLKFRERLSKNCLPAFNLELVYQCAERALEEELNETCSAAKCVPMSGISERIFVGTWRDAADEKLLRQMCITHTLNVARELVDTEEMHRVESVPFVTSKSIPLSDSLDEDIVHHFEDAFEFIRGATRNGRILVYCRRGMSRSAAIVVAYLMESEGMSFCDAHNDVKDKRPCISLNLAFLQRLQEYEEHLEKVRAAARTN	not soluble
MRYDVLARAGFARRGNLHLPHSIVETPVFMPVGTQGTMKGIVPEQLVSMDCRILLCNTYHLGHRPGHERVKAAGGLHKMMNWNRSILTDSGGFQMVSLSKLMTVDENGVNFESPHTGEMMALPPEKSIEIQQALGADIMMQLDHVIHVLTTGDIVKEAMHRSIRWLDRCKVAHTRDDQAMFPILQGGLNLELRKECAKEMAKRAKVGIAIGGLSGGEEKDHFWRVVAACCAALPPHLPRYVMGVGFPVDLVICSFLGADMFDCVYPTRTARFGTAMVRRGGLMQLNQKRYKEDFLPIDKKCECNTCKNYTRAYIHSIVGKETVGCHLVSVHNIKHQLDLMRDVRQAIQSNSVEQFLKQFLYDYYGPIQSENPSKQDSEKMREVPQWVRDAVDHMGYKLDF	not soluble
MESLGSIALFVLVTETRSFTLAGKRLGISSSGVGKSVGRLEESLGVRLFHRSTRSIALTLEGSIFLDRCRRILSELDAAQLELSNARDLPKGRLRISVPLVFGLVMPVVIQFMRTYPEIELDIDFSDRMVDIIDEGFDVVLRTGEPSDSRLMSKRMGSFQLCIVGSPDYFARHGLPEQPADLIHHACLQHKFPSTGKFEHWPLRREPGSEDFELPQTMVCNTTEVLVEVARAGLGITCLPDFMLASAIRKGELIPILSDYTLHTGSFRLFWASSKHLSVRLRVFIDFMHANLFAPARVGQEGRS	not soluble
MKRRRKSGEKVQMHRFALPLCYGSEAPYYYYEVAPHEREERFHLTSELCVMDDEHYFIRGCLEIPIIDYHENFIWTVWVSLSKESYDEVLEKWDERGRENSDPYFGWLSVEMPVYPETLNLKTNVHIREVGTAPYVELEPTEHPLAIEQRNGITLERVKEIQEMIQRHS	not soluble
SEEDAGNGGFRKRMRASDEEGKGDSRDGISLDHTIENEEAETKLVASDEMELSIAQILDKIESFTQTVSNLLETGKTMLKELSNEFEERLIMIHKEHVEKWQDEIKELRLLDASNEETTSLLHNARYLIQNPSIEQ	soluble
MLEHLIKISRRNWSSLKVIILAGGRGKRITLFKPFLVVCGKPLISWAFDAVNKLSDKVYLGINQSHPLFTIFKHSIFKIFPTPDISYENDVKYVVESLGPPILVLPVDIAFINNNIINNLIERCAVDMCTLKSYGSYLGVTYWTGLNFSNYTDIEVKEKLYNINTWEDYIKANKECNILLEHHHHHH	soluble
MTGQRDGASLHDALTDKQAAVLRAAFHAGYFEWPRESTAEDLAADMGVTAPTLHNHLRRAQQKLLEHHHHHH	not soluble
MSNPTKISILGRESIIADFGLWRNYVAKDLISDCSSTTYVLVTDTNIGSIYTPSFEEAFRKRAAEITPSPRLLIYNRPPGEVSKSRQTKADIEDWMLSQNPPCGRDTVVIALGGGVIGDLTGFVASTYMRGVRYVQVPTTLLAMVDSSIGGKTAIDTPLGKNLIGAIWQPTKIYIDLEFLETLPVREFINGMAEVIKTAAISSEEEFTALEENAETILKAVRREVTPGEHRFEGTEEILKARILASARHKAYVVSADEREGGLRNLLNWGHSIGHAIEAILTPQILHGECVAIGMVKEAELARHLGILKGVAVSRIVKCLAAYGLPTSLKDARIRKLTAGKHCSVDQLMFNMALDKKNDGPKKKIVLLSAIGTPYETRASVVANEDIRVVLAP	soluble
MAKSFNQAASELTDIFPNISLTGFDGVNYPVTVNCPMHGNVRYSTFNALIKSKYGCPECAKMSKTQTPPNVGKPLLILDTTTNETLTFPSVTAAGAALGVHFQQINHRLKGRTSPDNLISNRYKVLGYDR	not soluble
MATNWGSLLQDKQQLEELARQAVDRALAEGVLLRTSQEPTSSEVVSYAPFTLFPSLVPSALLEQAYAVQMDFNLLVDAVSQNAAFLEQTLSSTIKQDDFTARLFDIHKQVLKEGIAQTVFLGLNRSDYMFQRSADGSPALKQIEINTISASFGGLASRTPAVHRHVLSVLSKTKEAGKILSNNPSKGLALGIAKAWELYGSPNALVLLIAQEKERNIFDQRAIENELLARNIHVIRRTFEDISEKGSLDQDRRLFVDGQEIAVVYFRDGYMPRQYSLQNWEARLLLERSHAAKCPDIATQLAGTKKVQQELSRPGMLEMLLPGQPEAVARLRATFAGLYSLDVGEEGDQAIAEALAAPSRFVLKPQREGGGNNLYGEEMVQALKQLKDSEERASYILMEKIEPEPFENCLLRPGSPARVVQCISELGIFGVYVRQEKTLVMNKHVGHLLRTKAIEHADGGVAAGVAVLDNPYPV	soluble
CVTGDTLVFTDKGLIEARKLEVGMKVWSGDGWNEIKEVINNGVKPVLKLKLKTGLEIKVTEEHKIFTGEGWKEAKDLKVGDKLYLPVSYPELDFPVKEENDFYEFLGYFLGDGSLSVSNHVSLHVGNDKELALYFKEKVEKYAGAAYLIERDGQYIIDVHRKEFAEKIKKIFGIEITDSKEKDIPSSLLAVNSEAMKALLRGLFSADGSVYDANGSITVALSSTSYPLLRKVQILLLSLGIPSTLTGEKDQDVKIIKGNEYETLPTYRLIISGERASLFFNKIGLIGEKKKKFLELMAGKTTYSTLNNHLYQEIVSIEPAGEEEVFDITAPPKYTWITNGILSLD	soluble
